The record followed here is PMC4287489, “Ribose 5-Phosphate Isomerase B Knockdown Compromises Trypanosoma brucei Bloodstream Form Infectivity” (PLoS Neglected Tropical Diseases, 2015).

For data set [1], the system named is O=C(CO)[C@H](O)[C@H](O)COP(=O)(O)O. The data set can be described thus: purified protein.
The target of data set [2] is T1, Trypanosoma cruzi ribose 5-phosphate isomerase B (TcRpiB) (Trypanosoma cruzi, UniProt Q4DBP9).
T1 construct: gene Tc00.1047053508601.119; recombinant N-terminal 6xHis-tagged TcRpiB (CL Brener Non-Esmeraldo-like) expressed in E. coli; 159 residues per monomer
T1 sequence (Q4DBP9 entry or part of it): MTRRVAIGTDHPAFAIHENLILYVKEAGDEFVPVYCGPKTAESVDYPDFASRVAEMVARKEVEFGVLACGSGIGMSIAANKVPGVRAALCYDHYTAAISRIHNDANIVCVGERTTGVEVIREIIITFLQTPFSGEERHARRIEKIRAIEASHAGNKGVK
The data set can be described thus: spectrophotometric isomerase assay; Ki from Kmapp/Vmax plot; IC50 […]. The format is biochemical.

The target in data set [3] is T2, Trypanosoma brucei ribose 5-phosphate isomerase B (TbRpiB) (Trypanosoma brucei, UniProt Q384D1).
T2 construct: gene Tb11.01.0700; recombinant N-terminal 6xHis-tagged TbRpiB expressed in E. coli; 155 residues per monomer
T2 sequence (Q384D1 entry or part of it): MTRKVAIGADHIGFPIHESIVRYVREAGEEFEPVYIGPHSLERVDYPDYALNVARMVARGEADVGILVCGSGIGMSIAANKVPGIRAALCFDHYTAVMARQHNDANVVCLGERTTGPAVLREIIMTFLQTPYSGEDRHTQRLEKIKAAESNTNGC
The data set can be described thus: spectrophotometric isomerase assay ([…] nm) and cysteine-carbazole assay; Ki from Kmapp/Vmax plot; IC50 […]. Type of data set: biochemical.

For data set [4], the target named is T1, Trypanosoma cruzi ribose 5-phosphate isomerase B (TcRpiB). The data set can be described thus: enzyme kinetics (Km), direct spectrophotometric assay at […] nm. The format is biochemical.

On to “Trypanosoma brucei ribose 5-phosphate isomerase B (TbRpiB) (Trypanosoma brucei brucei TREU927)”, for which, in data set [1], the Km was found to be 2390 ± 940 µM, the kcat is 39.4 ± 5.32 s⁻¹ and the kcat/Km turned out to be 16400 M⁻¹ s⁻¹.

For the compound `O=C(NO)[C@H](O)[C@H](O)COP(=O)(O)O` [4-PEH, 4-deoxy-4-phospho-D-erythronohydroxamic acid], the Ki in data set [2] was determined as 1600 µM; in data set [3], 2200 µM.

On to `O=P(O)(O)OC[C@H]1OC(O)[C@H](O)[C@@H]1O` (stereo partly drawn) [R5P, D-ribose 5-phosphate], for which, in data set [4], the “enzyme kinetics (Km), direct spectrophotometric assay at 290 nm” value was “enzymes have in vitro ribose 5-phosphate isomerase activity, as these proteins can use both R5P and Ru5P as substrates”.

What is called Km is the substrate concentration at which the rate is half of its maximum. As usually defined, the kcat is the maximal rate divided by the concentration of active sites. What is called kcat/Km is the second-order rate constant that governs catalysis at low substrate concentration. Broadly, the Ki is the dissociation constant of the complex between target and ligand, obtained from inhibition or displacement. Read a high Ki as a looser hold on the target.
